This passage reports Kd, binding result and EC50 results from US20240317852A1 (Molecular Partners, published 2024).

Assay [1] concerns the target T1, biotinylated human CD33 full-length extracellular domain (residues 18-259) with C-terminal Fc tag and Avi tag (human, UniProt P20138 18-259, biotinylated with BirA-GST (Avi tag)).
T1 construct: Bought from Evitria; also called bio.hCD33; bio.hCD33 full-length target; not shown: C-terminal Fc tag and Avi tag
Nature of the assay: SPR (ProteOn XPR36), biotinylated full-length CD33 ECD on NLC chip, DARPin at 50 nM, single trace. On the procedure:
Briefly, SPR measurements were performed using a ProteOn XPR36 instrument (BioRad). The running buffer was PBS pH 7.4 containing 0.005% Tween 20® (PBST). The bio.hCD33 full-length target (SEQ ID NO: 60) was immobilized on NLC chips (BioRad) to a level of 540 RU and the spliced variant (SEQ ID NO: 61) to a level of 560RU. The interaction of the 96 well purified CD33-specific binding proteins in TCE format to the full-length and the spliced variant of CD33 ECD were measured by injecting the binding protein at 50 nM with an association of 120s and dissociation of 1200s using a constant flow of […]. The target was regenerated between the individual measurements using 2M MgCl₂. The signals were double referenced against the running buffer (PBST) treated control lane.
Dissociation constants (KD) were calculated from the estimated on- and off-rates using standard procedures known to the person skilled in the art. […] The values in Table 2a are averages of multiple replicates.

Assay [2] has as its target T2, human CD33 expressed on Molm-13 tumor cells (human, UniProt P20138 18-364).
T2 construct: whole, on cells; also called CD33 expressed on the surface of cells; CD33-expressing tumor cells (Molm-13 N1)
In words: flow cytometry on MOLM13 cells.

Assay [3] concerns the target T1, biotinylated human CD33 full-length …. Nature of the assay: HTRF.
Assay [4] shares this target. Nature of the assay: SPR (ProteOn), bio.hCD33 full length on NLC chip, DARPin at 100 nM, 1:1 Langmuir fit. On the procedure:
Moreover, the binding affinities of two additional purified ankyrin repeat proteins on recombinant human CD33 target were measured and analyzed with a similar procedure as described above for DARPin proteins #1, #3, #6, #7-#9 and #14-#16. Briefly, bio.hCD33 was coaled on NLC chip (BioRad) to a level of 1180 RU. DARPin® protein #29 and DARPin® protein #30 were applied as analyte at a single concentration of 100 nM with a 120 s association and 1200 s dissociation phase at a constant flow of 100 ul/min. The target was regenerated with 4M MgCl2. The signals were double referenced against the running buffer (PBST-PBS pH 7.4 containing 0.005% Tween 200) treated control lane of L1 and A6. The 1:1 Langmuir model was used for the fitting.

Assay [5] concerns the target T2, human CD33 expressed on Molm-13 tumor …. In words: flow cytometry on CD33-expressing Molm-13 N1 cells, anti-DARPin antibody detection. On the procedure:
Binding of binding proteins of the invention to CD33 expressed on the surface of cells was analyzed by fluorescence activated cell sorting (FACS) flow cytometry. For this purpose. CD33-expressing tumor cells (Molm-13 N1) were seeded at 100,000 cells per well in a 96 well plate. DARPin® protein #2, DARPin protein #29, and DARPin® protein #30, in monospecific format, were titrated down In 1:5 dilution ratio starting at 2000 nM. Tumor cells were resuspended with diluted DARPin proteins and incubated for 60 minutes at 4° C. The assay was performed in PBS Including 2% fetal bovine serum without human serum albumin (HSA). After washing twice with Phosphate Buffer saline (PBS), DARPin® protein specific tumor call binding was detected by adding unlabeled primary […] (anti-rabbit 1-1-1 antibody, CePower) at 2 μg/ml. An incubation step of at least 30 minutes at 4° C. followed. Afterwards, cells were washed with PBS and a secondary goat anti-rabbit antibody labelled with Alexa Fluor 488 antibody (ThermoFisher) at 2 ug/ml was added. The same incubation conditions applied. Finally, the cells were washed twice and resuspended in Cytofix fixation buffer (BD Biosciences) for 15 min at room temperature (RT).

T2 sequence (P20138 18-364): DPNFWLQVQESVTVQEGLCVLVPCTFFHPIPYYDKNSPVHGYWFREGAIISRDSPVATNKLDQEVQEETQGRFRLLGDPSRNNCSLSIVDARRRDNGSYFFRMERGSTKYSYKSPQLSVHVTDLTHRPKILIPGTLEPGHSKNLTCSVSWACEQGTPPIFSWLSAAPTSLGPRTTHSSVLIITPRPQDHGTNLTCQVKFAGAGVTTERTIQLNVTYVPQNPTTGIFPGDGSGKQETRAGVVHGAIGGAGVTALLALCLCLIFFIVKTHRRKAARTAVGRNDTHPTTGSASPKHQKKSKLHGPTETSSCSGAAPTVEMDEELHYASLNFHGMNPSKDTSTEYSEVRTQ
T1 sequence (P20138 18-259 R69G limits assumed): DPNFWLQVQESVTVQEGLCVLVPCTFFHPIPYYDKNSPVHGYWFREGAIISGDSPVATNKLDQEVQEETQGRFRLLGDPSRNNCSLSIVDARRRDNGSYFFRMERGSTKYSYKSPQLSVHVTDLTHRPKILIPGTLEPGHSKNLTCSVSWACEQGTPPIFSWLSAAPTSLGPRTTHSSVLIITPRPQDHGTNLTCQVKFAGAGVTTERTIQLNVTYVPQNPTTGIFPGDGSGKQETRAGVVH

B1: DARPin® protein #7 in TCE format (formatted with a CD3-specific ankyrin repeat domain) (designed binder)
chain: MRGSHHHHHHGSDLGLKLLRAAYDGQDDEVRILLAAGADVNAKDWQGFTPLHYAAVLGHLEIVEVLLKAGADVNAKDQEGATPLHLAALHGHLEIVEVLLKAGADVNAQDESGWTPADLAAKWGHEDIAEVLQKAA
notes: Crude extract HTRF construct also carried a C-terminal Flag tag; not shown: which one,
In turn, B1 showed a Kd in assay [1] of 0.47 nM.

B2: DARPin® protein #9 in TCE format (formatted with a CD3-specific ankyrin repeat domain) (designed binder)
chain: MRGSHHHHHHGSDLGYKLLWAASAGQDDEVRILLAAGADVNAKDKDGATPLHFAAAKGHLEIVEVLLKAGADVNAKDNRGATPLHYVAAASGHLEIVEVLLKAGADVNAQDEWGNTPADLAAIYGHGDIAEVLQKAA
notes: as for B1
As for B2, the Kd in assay [1] turned out to be 0.76 nM.

B3: DARPin® protein #14 in TCE format (formatted with a CD3-specific ankyrin repeat domain) (designed binder)
chain: MRGSHHHHHHGSDLGWKLLNAAIAGQDDEVRILLAAGADVNAKDTEYGWTPLHIAASDGHLEIVEVLLKAGADVNAKDYAGSTPLHAAAFVGHLEIVEVLLKAGADVNAQDHQGQTPADLAAQQGHVDIAEVLQKAA
notes: as for B1
Molecule B3 returned a Kd in assay [1] of 0.64 nM.

B4: DARPin® protein #10 (engineered variant of DARPin® protein #9) (designed binder)
chain: DLGYKLLWAASAGQDDEVRELLKAGADVNAKDKDGATPLHFAAAKGHLEIVEVLLKAGADVNAKDNRGATPLHYAAASGHLEIVEVLLKAGADVNAQDEWGNTPADLAAIYGHGDIAEVLQKAA
Turning to B4, the binding result in assay [2] and in assay [3] was “binds” in each case.

B5: DARPin® protein #13 (engineered variant of DARPin® protein #9) (designed binder)
chain: DLGYKLLWAASAGQDDEVRELLKAGADVNAKDKDGATPLHFAAAKGHLEIVEVLLKAGADVNAKDNRGATPLHYAAASGHLEIVEVLLKAGADVNAQDEWGNTPADLAAIYGHEDIAEVLQKAA
For B5, the binding result in assay [2] and in assay [3] was “binds” throughout.

B6: DARPin® protein #1 in TCE format (formatted with a CD3-specific ankyrin repeat domain) (designed binder)
chain: MRGSHHHHHHGSDLGWKLLLAASRGQDDEVRILLAAGADVNAKDIDEGYTPLHIAAYYGHLEIVEVLLKAGADVNAKDRYGKTPLHLAAISGHEDIAEVLLKAGADVNAQDDKGDTPADLAADYGHEDIAEVLQKAA
notes: not shown: which one,
On to B6, for which the Kd in assay [1] came out at 4.8 nM.

B7: DARPin® protein #15 in TCE format (formatted with a CD3-specific ankyrin repeat domain) (designed binder)
chain: MRGSHHHHHHGSDLGKKLLQAARAGQLDEVRELLKAGADVNAKDLIGWTPLHLAAHYGHLEIVEVLLKAGADVNAKDAQGWTPLHIAAWEGHLEIVEVLLKAGADVNAKDWTGETPLHLAAFEGHLEIVEVLLKAGADVNAQDKSGKTPADLAARAGHQDIAEVLQKAA
notes: as for B1
The molecule B7 registered a Kd in assay [1] of 17 nM.

B8: DARPin® protein #5 in TCE format (formatted with a CD3-specific ankyrin repeat domain) (designed binder)
chain: MRGSHHHHHHGSDLSKKLLQAARAGQLDEVRELLKAGADVNAKDQIGQTPLHLAAQSGHLEIVEVLLKAGADVNAKDTEGWTPLHVAAWEGHLEIVEVLLKAGADVNAKDWTGETPLHLAAYQGHLEIVEVLLKAGADVNAQDKSGKTPADLAARAGHQDIAEVLQKAA
notes: as for B1
In assay [1], B8 gave a Kd of 12 nM.

B9: DARPin® protein #11 (engineered variant of DARPin® protein #9) (designed binder)
chain: DLGYKLLWAASAGQDDEVRELLKAGADVNAKDKDGATPLHFAAAKGHLEIVEVLLKAGADVNAKDNRGATPLHYVAAASGHLEIVEVLLKAGADVNAQDEWGNTPADLAAIYGHEDIAEVLQKAA
On to B9, for which the binding result in assay [2] and in assay [3] was “binds” in each case.

B10: DARPin® protein #12 (engineered variant of DARPin® protein #9) (designed binder)
chain: DLGVKLLWAASAGQDDEVRELLKAGADVNAKDKDGATPLHFAAAKGHLEIVEVLLKAGADVNAKDNRGATPLHYVAAASGHLEIVEVLLKAGADVNAQDEWGNTPADLAAIYGHGDIAEVLQKAA
As to B10, the binding result in assay [2] and in assay [3] was “binds” each time.

B11: DARPin® protein #29 in monospecific (single domain) format (designed binder)
chain: MRGSHHHHHHGSDLGVKLLLAAERGQLDEVRILLKAGADVNAKDIAEGYTPLHIAAYQGHLEIVEVLLKAGADVNAKDRYGKTPLHLAAIGGHLEIVEVLLKAGADVNAQDNKGSTPADLAADYGHQDIAEVLQKAA
notes: the same molecule is used here
Take B11: in assay [4], binding was characterised by a dissociation constant (Kd) of 0.62 nM. The molecule further displayed an EC50 in assay [5] of 0.32 nM.

B12: DARPin® protein #30 in monospecific (single domain) format (designed binder)
chain: MRGSHHHHHHGSDLGKKLLLAAERGQLDEVRILLKAGADVNAKDRAEGYTPLHIAAYQGHLEIVEVLLKAGADVNAKDRYGKTPLHLAAISGHLEIVEVLLKAGADVNAQDNKGSTPADLAADYGHQDIAEVLQKAA
notes: as for B11
In assay [4], B12 yielded a Kd of 0.88 nM. Moreover, the EC50 in assay [5] amounted to 1.9 nM.

B13: DARPin® protein #2 in monospecific (single domain) format (designed binder)
chain: MRGSHHHHHHGSDLGVKLLLAASRGQLDEVRILLKAGADVNAKDIDEGYTPLHIAAYYGHLEIVEVLLKAGADVNAKDRYGKTPLHLAAISGHLEIVEVLLKAGADVNAQDDKGDTPADLAADYGHQDIAEVLQKAA
B13 returned an EC50 in assay [5] of 1.2 nM.

B14: DARPin® protein #8 in TCE format (formatted with a CD3-specific ankyrin repeat domain) (designed binder)
chain: MRGSHHHHHHGSDLGWKLLSAATLGQDDEVRILLAAGADVNAKDEWGKTPLHWAASTGHLEIVEVLLKAGADVNAKDLWGHTPLHEAAAKGHLEIVEVLLKAGADGNAQDNIGDTPADLAAYQGHEDIAEVLQKAA
notes: as for B1
B14 returned a Kd in assay [1] of 2.3 nM.

B15: DARPin® protein #3 in TCE format (formatted with a CD3-specific ankyrin repeat domain) (designed binder)
chain: MRGSHHHHHHGSDLGVKLLRAAFHGQDDEVRILLAAGADVNAKDTDGETPLHYAAQFGHLEIVEVLLKAGADVNAKDAYGATPLHWAAWHGHLEIVEVLLKAGADVNAQDVSGATPADLAAKVGHEDIAEVLQKAA
notes: as for B1
With B15, binding in assay [1] was put at a Kd of 7.4 nM.
